Results: patent publication US20190031734A1 (CHILDREN S MEDICAL CENTER, published 2019)

Experiments:
[1] = target: T1, CSPG4 endogenous on HeLa cells (human, UniProt Q6UVK1 30-2322); assay: binding to HeLa cells; largely abolished in CSPG4^-/- cells
T1 construct: whole, on cells

[2] = target: T2, FZD2-CRD-Fc, recombinant human protein (ACRO Biosystems) (human, UniProt Q14332 24-190); assay: GST pull-down, immunoblot
T2 construct: domain: cysteine-rich domain (CRD); also called Fc-tagged FZD2-CRD; FZD2-Fc; not shown: Fc tag of the purchased protein

T1 sequence (Q6UVK1 30-2322): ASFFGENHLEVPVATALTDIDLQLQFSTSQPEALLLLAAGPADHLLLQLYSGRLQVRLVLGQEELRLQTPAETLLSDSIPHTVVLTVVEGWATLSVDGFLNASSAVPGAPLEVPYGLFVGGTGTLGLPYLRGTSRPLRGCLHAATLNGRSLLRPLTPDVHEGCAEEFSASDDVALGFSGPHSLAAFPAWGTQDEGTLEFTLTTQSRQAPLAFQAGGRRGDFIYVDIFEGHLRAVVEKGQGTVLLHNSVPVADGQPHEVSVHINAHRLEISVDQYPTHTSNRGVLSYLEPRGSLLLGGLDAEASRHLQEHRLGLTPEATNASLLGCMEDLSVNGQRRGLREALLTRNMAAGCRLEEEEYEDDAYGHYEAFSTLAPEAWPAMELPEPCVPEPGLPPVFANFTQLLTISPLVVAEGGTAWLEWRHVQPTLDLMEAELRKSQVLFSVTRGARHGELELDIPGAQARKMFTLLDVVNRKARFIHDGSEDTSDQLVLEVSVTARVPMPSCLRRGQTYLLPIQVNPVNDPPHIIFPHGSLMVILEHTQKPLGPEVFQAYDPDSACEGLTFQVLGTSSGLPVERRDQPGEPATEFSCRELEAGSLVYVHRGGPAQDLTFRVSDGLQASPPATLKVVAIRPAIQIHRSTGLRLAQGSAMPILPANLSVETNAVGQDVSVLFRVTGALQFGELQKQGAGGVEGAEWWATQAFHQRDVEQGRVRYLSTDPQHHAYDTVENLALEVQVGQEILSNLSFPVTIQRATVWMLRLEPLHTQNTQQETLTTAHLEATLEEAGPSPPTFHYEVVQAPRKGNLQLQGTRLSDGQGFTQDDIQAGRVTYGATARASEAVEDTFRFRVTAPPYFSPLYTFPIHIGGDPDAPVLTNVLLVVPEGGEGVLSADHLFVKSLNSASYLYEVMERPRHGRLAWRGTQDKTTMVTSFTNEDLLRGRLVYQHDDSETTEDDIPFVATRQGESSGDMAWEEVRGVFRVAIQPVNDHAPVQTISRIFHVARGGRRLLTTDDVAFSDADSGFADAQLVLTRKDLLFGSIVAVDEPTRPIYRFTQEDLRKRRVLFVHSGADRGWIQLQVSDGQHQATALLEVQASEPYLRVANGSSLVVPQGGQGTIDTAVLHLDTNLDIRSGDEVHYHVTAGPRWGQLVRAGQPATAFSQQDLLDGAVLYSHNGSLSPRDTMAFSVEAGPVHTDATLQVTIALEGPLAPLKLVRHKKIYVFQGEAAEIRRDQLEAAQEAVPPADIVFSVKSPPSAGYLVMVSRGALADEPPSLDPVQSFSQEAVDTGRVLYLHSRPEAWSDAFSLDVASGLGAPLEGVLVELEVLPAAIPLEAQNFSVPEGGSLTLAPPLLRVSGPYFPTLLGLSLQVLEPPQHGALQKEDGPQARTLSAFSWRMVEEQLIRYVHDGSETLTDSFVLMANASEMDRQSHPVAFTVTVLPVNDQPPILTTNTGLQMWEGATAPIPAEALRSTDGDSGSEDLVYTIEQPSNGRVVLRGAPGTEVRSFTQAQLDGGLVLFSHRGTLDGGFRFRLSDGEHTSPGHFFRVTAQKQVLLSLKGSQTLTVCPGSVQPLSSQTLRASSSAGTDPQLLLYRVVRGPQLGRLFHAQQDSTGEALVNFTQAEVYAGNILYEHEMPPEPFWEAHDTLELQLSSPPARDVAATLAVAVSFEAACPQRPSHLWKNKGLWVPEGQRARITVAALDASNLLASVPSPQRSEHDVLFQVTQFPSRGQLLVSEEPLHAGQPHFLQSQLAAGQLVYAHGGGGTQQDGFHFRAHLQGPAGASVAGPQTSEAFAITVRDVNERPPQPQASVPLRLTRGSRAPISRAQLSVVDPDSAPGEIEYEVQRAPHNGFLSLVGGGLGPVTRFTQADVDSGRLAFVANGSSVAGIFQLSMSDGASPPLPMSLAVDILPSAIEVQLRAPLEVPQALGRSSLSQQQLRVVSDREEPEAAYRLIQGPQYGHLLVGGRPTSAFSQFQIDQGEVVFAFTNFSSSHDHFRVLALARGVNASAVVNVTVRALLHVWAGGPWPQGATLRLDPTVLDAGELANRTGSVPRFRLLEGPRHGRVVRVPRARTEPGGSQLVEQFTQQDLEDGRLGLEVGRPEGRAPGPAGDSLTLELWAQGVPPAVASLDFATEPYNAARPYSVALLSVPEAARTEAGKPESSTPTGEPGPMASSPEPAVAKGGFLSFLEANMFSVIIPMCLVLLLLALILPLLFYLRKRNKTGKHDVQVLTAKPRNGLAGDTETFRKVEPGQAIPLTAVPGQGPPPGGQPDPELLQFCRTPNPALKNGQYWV

B1: CROPs fragment of TcdB (TcdB1831-2366) as used in the cell-binding assays (other)
chain: MVSGLIYINDSLYYFKPPVNNLITGFVTVGDDKYYFNPINGGAASIGETIIDDKNYYFNQSGVLQTGVFSTEDGFKYFAPANTLDENLEGEAIDFTGKLIIDENIYYFDDNYRGAVEWKELDGEMHYFSPETGKAFKGLNQIGDYKYYFNSDGVMQKGFVSINDNKHYFDDSGVMKVGYTEIDGKHFYFAENGEMQIGVFNTEDGFKYFAHHNEDLGNEEGEEISYSGILNFNNKIYYFDDSFTAVVGWKDLEDGSKYYFDEDTAEAYIGLSLINDGQYYFNDDGIMQVGFVTINDKVFYFSDSGIIESGVQNIDDNYFYIDDNGIVQIGVFDTSDGYKYFAPANTVNDNIYGQAVEYSGLVRVGEDVYYFGETYTIETGWIYDMENESDKYYFNPETKKACKGINLIDDIKYYFDEKGIMRTGLISFENNNYYFNENGEMQFGYINIEDKMFYFGEDGVMQIGVFNTPDGFKYFAHQNTLDENFEGESINYTGWLDLDEKRYYFTDEYIAATGSVIIDGEEYYFDPDTAQLVISE
Question: Does B1 bind [1]?
Answer: Result: binds

B2: GST-tagged CROPs region of TcdB (residues 1831-2366) (other)
chain: MVSGLIYINDSLYYFKPPVNNLITGFVTVGDDKYYFNPINGGAASIGETIIDDKNYYFNQSGVLQTGVFSTEDGFKYFAPANTLDENLEGEAIDFTGKLIIDENIYYFDDNYRGAVEWKELDGEMHYFSPETGKAFKGLNQIGDYKYYFNSDGVMQKGFVSINDNKHYFDDSGVMKVGYTEIDGKHFYFAENGEMQIGVFNTEDGFKYFAHHNEDLGNEEGEEISYSGILNFNNKIYYFDDSFTAVVGWKDLEDGSKYYFDEDTAEAYIGLSLINDGQYYFNDDGIMQVGFVTINDKVFYFSDSGIIESGVQNIDDNYFYIDDNGIVQIGVFDTSDGYKYFAPANTVNDNIYGQAVEYSGLVRVGEDVYYFGETYTIETGWIYDMENESDKYYFNPETKKACKGINLIDDIKYYFDEKGIMRTGLISFENNNYYFNENGEMQFGYINIEDKMFYFGEDGVMQIGVFNTPDGFKYFAHQNTLDENFEGESINYTGWLDLDEKRYYFTDEYIAATGSVIIDGEEYYFDPDTAQLVISE
Question: Does B2 bind [2]?
Answer: Result: no binding (tested: 10 nM FZD2-CRD-Fc)
